These results are taken from patent publication US20190175744A1 (Merck Sharp & Dohme, published 2019).

First the molecules themselves.
B1: PEP6 (peptide)
peptide: H[Aib]QGTFTSDK([γGlu-γGlu-Palmitoyl])SKYLD[Aib]RRAQDFVQWLLDT[Lys(N3)][γGlu]-NH2
modifications: N-terminus assumed
SMILES: CCCCCCCCCCCCCCCC(=O)N[C@@H](CCC(=O)N[C@@H](CCC(=O)NCCCC[C@H](NC(=O)[C@H](CC(=O)O)NC(=O)[C@H](CO)NC(=O)[C@@H](NC(=O)[C@H](Cc1ccccc1)NC(=O)[C@@H](NC(=O)CNC(=O)[C@H](CCC(N)=O)NC(=O)C(C)(C)NC(=O)[C@@H](N)Cc1c[nH]cn1)[C@@H](C)O)[C@@H](C)O)C(=O)N[C@@H](CO)C(=O)N[C@@H](CCCCN)C(=O)N[C@@H](Cc1ccc(O)cc1)C(=O)N[C@@H](CC(C)C)C(=O)N[C@@H](CC(=O)O)C(=O)NC(C)(C)C(=O)N[C@@H](CCCNC(=N)N)C(=O)N[C@@H](CCCNC(=N)N)C(=O)N[C@@H](C)C(=O)N[C@@H](CCC(N)=O)C(=O)N[C@@H](CC(=O)O)C(=O)N[C@@H](Cc1ccccc1)C(=O)N[C@H](C(=O)N[C@@H](CCC(N)=O)C(=O)N[C@@H](Cc1c[nH]c2ccccc12)C(=O)N[C@@H](CC(C)C)C(=O)N[C@@H](CC(C)C)C(=O)N[C@@H](CC(=O)O)C(=O)N[C@H](C(=O)N[C@@H](CCCCN=[N+]=[N-])C(=O)N[C@@H](CCC(N)=O)C(=O)O)[C@@H](C)O)C(C)C)C(=O)O)C(=O)O
B2: PEP22 (peptide)
peptide: H[Aib]QGTFTSDK([γGlu-γGlu-Palmitoyl])SKYLD[Aib]RAAQDFV[Lys(N3)]WLLDTK[γGlu]-NH2
modifications: N-terminus assumed
SMILES: CCCCCCCCCCCCCCCC(=O)N[C@@H](CCC(=O)N[C@@H](CCC(=O)NCCCC[C@H](NC(=O)[C@H](CC(=O)O)NC(=O)[C@H](CO)NC(=O)[C@@H](NC(=O)[C@H](Cc1ccccc1)NC(=O)[C@@H](NC(=O)CNC(=O)[C@H](CCC(N)=O)NC(=O)C(C)(C)NC(=O)[C@@H](N)Cc1c[nH]cn1)[C@@H](C)O)[C@@H](C)O)C(=O)N[C@@H](CO)C(=O)N[C@@H](CCCCN)C(=O)N[C@@H](Cc1ccc(O)cc1)C(=O)N[C@@H](CC(C)C)C(=O)N[C@@H](CC(=O)O)C(=O)NC(C)(C)C(=O)N[C@@H](CCCNC(=N)N)C(=O)N[C@@H](C)C(=O)N[C@@H](C)C(=O)N[C@@H](CCC(N)=O)C(=O)N[C@@H](CC(=O)O)C(=O)N[C@@H](Cc1ccccc1)C(=O)N[C@H](C(=O)N[C@@H](CCCCN=[N+]=[N-])C(=O)N[C@@H](Cc1c[nH]c2ccccc12)C(=O)N[C@@H](CC(C)C)C(=O)N[C@@H](CC(C)C)C(=O)N[C@@H](CC(=O)O)C(=O)N[C@H](C(=O)N[C@@H](CCCCN)C(=O)N[C@@H](CCC(N)=O)C(=O)O)[C@@H](C)O)C(C)C)C(=O)O)C(=O)O

Starred links: 1 amine or outer side, 2 acyl side, 3 side chain; linkers in the order of their positions; H or OH if unused. Non-standard residues stand in square brackets, D forms with d. Groups on a side chain read outwards from the residue. No end group written: not given here. *: point of attachment. Lys(N3) = [N-]=[N+]=NCCCC[C@H](N)C(=O)O; γGlu = O=C(O)[C@H](CCC(=O)[*:2])N[*:1]; Met(O2) = CS(=O)(=O)CC[C@H](N)C(=O)O; Palmitoyl = CCCCCCCCCCCCCCCC(=O)*; Aib = CC(C)(N)C(=O)O

The target in the first assay is human GLP-1 receptor (human, UniProt P43220 24-463). Nature of the assay: cell-based or functional assay.
Regarding HXQGTFTSDKSKYLDERAAQDFVXWLLXT (D-Ser (s) at 2; Lys 10 K(γEγEC16); Nle(εN3) at 24; γE at 28; C-terminal amide) [PEP11], the “hGLP1R EC50 (cAMP activity assay)” value was found to be 60 pM.

Consider B1, for which the “hGLP1R EC50 (cAMP activity assay)” value was 170 pM.

B2: the “hGLP1R EC50 (cAMP activity assay)” value worked out at 70 pM.

For HXQGTFTSDKSKYLDERAAQDFVXWLLDT (D-Ser (s) at 2; Lys 10 K(γEγEC16); Nle(εN3) at 24; C-terminal amide) [PEP74], the “hGLP1R EC50 (cAMP activity assay)” value is 50 pM.

The next assay addresses human glucagon receptor (human, UniProt P47871 26-477). Nature of the assay: cell-based or functional assay.
In the case of H[Aib]QGTFTSDK([γGlu-γGlu-Palmitoyl])SKYLD[Aib]RAAQDFV[Lys(N3)]WL[Met(O2)]KGRG-NH2 [PEP3], the “hGCGR_EC50 (cAMP activity assay)” value came out at 0.07 nM.

Consider B1, for which the “hGCGR_EC50 (cAMP activity assay)” value was 0.07 nM.

Turning to H[Aib]QGTFTSDK([γGlu-γGlu-Palmitoyl])SKYLDERAAQDFV[Lys(N3)]WLLDGRG-NH2 [PEP2], the “hGCGR_EC50 (cAMP activity assay)” value came out at 0.11 nM.

Turning to H[dS]QGTFTSDK([γGlu-γGlu-Palmitoyl])SKYLDERAAQ[Lys(N3)]FVQWLLDT-NH2 [PEP1], the “hGCGR_EC50 (cAMP activity assay)” value came to 0.01 nM.
